Where “and” joins values, the source holds several entries; their conditions need not be identical. Identical values can stand only once.

The target of test [1] is bovine IgG whole molecules (reagent grade, Sigma) (bovine). As to the kind of experiment: sandwich ELISA; biotinylated antibody directly on streptavidin well; IgG mixture; detected with aB-AP.
Test [2] deals with dog IgG whole molecules (reagent grade, Sigma) (dog). As to the kind of experiment: sandwich ELISA; capture AB on A-DNA well; IgG mixture; detected with aD-AP. For orientation: ELISA stands for enzyme-linked immunosorbent assay.
The target in test [3] is bovine IgG whole molecules (reagent grade, Sigma) (bovine). As to the kind of experiment: sandwich ELISA; capture BB on B-DNA well; IgG mixture; detected with aB-AP.
Test [4] has as its target mouse IgG whole molecules (Pierce) (mouse). Kind of test: sandwich ELISA; capture CB on C-DNA well; IgG mixture; detected with aM-AP.
For test [5], the target named is bovine IgG whole molecules (reagent grade, Sigma) (bovine). Kind of test: sandwich ELISA; capture CB on C-DNA well; IgG mixture; detected with aB-AP.
The target in test [6] is dog IgG whole molecules (reagent grade, Sigma) (dog). As to the kind of experiment: sandwich ELISA; capture BB on B-DNA well; IgG mixture; detected with aD-AP.
For test [7] the target is unchanged. Kind of test: sandwich ELISA; capture CB on C-DNA well; IgG mixture; detected with aD-AP.
Test [8] has as its target mouse IgG whole molecules (Pierce) (mouse). As to the kind of experiment: sandwich ELISA; biotinylated antibody directly on streptavidin well; IgG mixture; detected with aM-AP.
Test [9] concerns the target bovine IgG whole molecules (reagent grade, Sigma) (bovine). Kind of test: sandwich ELISA; capture AB on A-DNA well; IgG mixture; detected with aB-AP.
The target in test [10] is mouse IgG whole molecules (Pierce) (mouse). Kind of test: sandwich ELISA; capture AB on A-DNA well; IgG mixture; detected with aM-AP.
Test [11] shares this target. As to the kind of experiment: sandwich ELISA; capture BB on B-DNA well; IgG mixture; detected with aM-AP.
Test [12] has the same target. As to the kind of experiment: sandwich ELISA; capture BD on B-DNA well; IgG mixture; detected with aM-AP.
Test [13] deals with bovine IgG whole molecules (reagent grade, Sigma) (bovine). Kind of test: sandwich ELISA; capture BD on B-DNA well; IgG mixture; detected with aB-AP.
The target of test [14] is dog IgG whole molecules (reagent grade, Sigma) (dog). As to the kind of experiment: sandwich ELISA; biotinylated antibody directly on streptavidin well; IgG mixture; detected with aD-AP.
Test [15] has as its target bovine IgG whole molecules (reagent grade, Sigma) (bovine). Kind of test: sandwich ELISA; capture AD on A-DNA well; IgG mixture; detected with aB-AP.
Test [16] has as its target dog IgG whole molecules (reagent grade, Sigma) (dog). As to the kind of experiment: sandwich ELISA; capture CD on C-DNA well; IgG mixture; detected with aD-AP.
The target of test [17] is mouse IgG whole molecules (Pierce) (mouse). As to the kind of experiment: sandwich ELISA; capture CD on C-DNA well; IgG mixture; detected with aM-AP.
For test [18] the target is unchanged. Kind of test: sandwich ELISA; capture AD on A-DNA well; IgG mixture; detected with aM-AP.
In test [19] the target is dog IgG whole molecules (reagent grade, Sigma) (dog). Kind of test: sandwich ELISA; capture BD on B-DNA well; IgG mixture; detected with aD-AP.
For test [20] the target is unchanged. Kind of test: sandwich ELISA; capture AD on A-DNA well; IgG mixture; detected with aD-AP.
Test [21] has as its target bovine IgG whole molecules (reagent grade, Sigma) (bovine). As to the kind of experiment: sandwich ELISA; capture CD on C-DNA well; IgG mixture; detected with aB-AP.
In test [22] the target is mouse IgG whole molecules (Pierce) (mouse). Kind of test: sandwich ELISA; capture AM on A-DNA well; IgG mixture; detected with aM-AP.
Test [23] concerns the target dog IgG whole molecules (reagent grade, Sigma) (dog). Kind of test: sandwich ELISA; capture BM on B-DNA well; IgG mixture; detected with aD-AP.
Test [24] concerns the target mouse IgG whole molecules (Pierce) (mouse). As to the kind of experiment: sandwich ELISA; capture BM on B-DNA well; IgG mixture; detected with aM-AP.
For test [25], the target named is bovine IgG whole molecules (reagent grade, Sigma) (bovine). As to the kind of experiment: sandwich ELISA; capture CM on C-DNA well; IgG mixture; detected with aB-AP.
Test [26] concerns the target mouse IgG whole molecules (Pierce) (mouse). As to the kind of experiment: sandwich ELISA; capture CM on C-DNA well; IgG mixture; detected with aM-AP.
For test [27], the target named is bovine IgG whole molecules (reagent grade, Sigma) (bovine). Kind of test: sandwich ELISA; capture AM on A-DNA well; IgG mixture; detected with aB-AP.
In test [28] the target is dog IgG whole molecules (reagent grade, Sigma) (dog). As to the kind of experiment: sandwich ELISA; capture AM on A-DNA well; IgG mixture; detected with aD-AP.
The target in test [29] is mouse IgG whole molecules (Pierce) (mouse). As to the kind of experiment: ELISA on mouse IgG-coated plate, A405, against controls A and B.
For test [30], the target named is bovine IgG whole molecules (reagent grade, Sigma) (bovine). Kind of test: sandwich ELISA; capture BM on B-DNA well; IgG mixture; detected with aB-AP.
Test [31] has as its target dog IgG whole molecules (reagent grade, Sigma) (dog). Kind of test: sandwich ELISA; capture CM on C-DNA well; IgG mixture; detected with aD-AP.

Take “biotinylated rabbit anti-bovine IgG (#B-7140), polyclonal rabbit IgG (antibody)”: the absorbance reading (405 nm) in [1] is 279 and 319 and 265; in [2], 20; in [3] it was 591; in [4] it was 24; in test [5], 90; in test [6], 9. Further, the absorbance reading (405 nm) in test [7] is 9; in test [8], 50 and 64 and 61; in test [9], 729; in [10], 146; in test [11], 153.

As to “biotinylated rabbit anti-dog IgG (#B-7640), polyclonal rabbit IgG (antibody)”, the absorbance reading (405 nm) is 28 and 26 and 75 in [1]; 31 in test [12]; 57 in [13]; 334 and 413 and 941 in test [14]; 84 in test [15]; 102 in test [16]. Moreover, the absorbance reading (405 nm) is 26 in test [17]; 73 in test [18]; 481 in test [19]; 20 and 24 and 35 in test [8]; 673 in test [20]; 23 in [21].

Consider “biotinylated rabbit anti-mouse IgG (#B-8520), polyclonal rabbit IgG (antibody)”, for which the absorbance reading (405 nm) in [22] is 533; in test [1] it was 15 and 31 and 19; in test [23] it was 4; in [24], 346; in [25] it was 8; in test [26], 49. The absorbance reading (405 nm) was 45 in test [27]; 8 in [28]; 177 and 189 and 186 in test [8]; 30 in [30]; 5 in [31]. The signal-to-noise ratio in test [29] is 60.

The record behind these values is patent publication US7569341.
